Source: US20130108608

Biological target: T1, recombinant human full-length TrpRS with C-terminal His6 tag
T1 chain: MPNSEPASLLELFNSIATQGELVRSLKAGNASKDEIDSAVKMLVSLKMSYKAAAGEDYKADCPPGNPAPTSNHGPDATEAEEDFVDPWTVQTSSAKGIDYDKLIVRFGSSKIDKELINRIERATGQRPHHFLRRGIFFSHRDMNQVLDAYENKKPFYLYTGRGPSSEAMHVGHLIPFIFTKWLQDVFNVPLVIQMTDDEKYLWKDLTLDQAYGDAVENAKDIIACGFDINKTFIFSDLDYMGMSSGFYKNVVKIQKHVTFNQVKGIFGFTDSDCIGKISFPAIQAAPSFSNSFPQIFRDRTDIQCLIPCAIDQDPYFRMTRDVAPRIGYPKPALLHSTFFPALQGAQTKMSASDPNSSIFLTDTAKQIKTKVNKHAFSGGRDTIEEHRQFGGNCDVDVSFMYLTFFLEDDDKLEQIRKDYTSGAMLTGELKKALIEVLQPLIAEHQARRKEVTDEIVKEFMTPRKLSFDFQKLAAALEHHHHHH

B1: PMN elastase (protein)
chain: IVGGRRARPHAWPFMVSLQLRGGHFCGATLIAPNFVMSAAHCVANVNVRAVRVVLGAHNLSRREPTRQVFAVQRIFENGYDPVNLLNDIVILQLNGSATINANVQVAQLPAQGRRLGNGVQCLAMGWGLLGRNRGIASVLQELNVTVVTSLCRRSNVCTLVRGRQAGVCFGDSGSPLVCNGLIHGIASFVRGGCASGLYPDAFAPVAQFVNWIDSIIQ
In the case of B1, the “cleavage of TrpRS by the protease, fragments on 12.5% SDS-PAGE” value is reported as “PMN elastase cleavage of a full-length TrpRS of about 53 kDa generated a major fragment of about 46 kDa (SEQ ID NO: 5, T1, having the C-terminal histidine tag, or an SY variant thereof) and a minor fragment of about 43.5 kDa”.
